Assay [1] concerns the target EphA2, endogenous (human (endogenous in PC3 and U251)) (UniProt P29317).
Assay [2] has the same target. The source holds these as a separate data set.

Sequence of UniProt P29317 (P29317 24-976): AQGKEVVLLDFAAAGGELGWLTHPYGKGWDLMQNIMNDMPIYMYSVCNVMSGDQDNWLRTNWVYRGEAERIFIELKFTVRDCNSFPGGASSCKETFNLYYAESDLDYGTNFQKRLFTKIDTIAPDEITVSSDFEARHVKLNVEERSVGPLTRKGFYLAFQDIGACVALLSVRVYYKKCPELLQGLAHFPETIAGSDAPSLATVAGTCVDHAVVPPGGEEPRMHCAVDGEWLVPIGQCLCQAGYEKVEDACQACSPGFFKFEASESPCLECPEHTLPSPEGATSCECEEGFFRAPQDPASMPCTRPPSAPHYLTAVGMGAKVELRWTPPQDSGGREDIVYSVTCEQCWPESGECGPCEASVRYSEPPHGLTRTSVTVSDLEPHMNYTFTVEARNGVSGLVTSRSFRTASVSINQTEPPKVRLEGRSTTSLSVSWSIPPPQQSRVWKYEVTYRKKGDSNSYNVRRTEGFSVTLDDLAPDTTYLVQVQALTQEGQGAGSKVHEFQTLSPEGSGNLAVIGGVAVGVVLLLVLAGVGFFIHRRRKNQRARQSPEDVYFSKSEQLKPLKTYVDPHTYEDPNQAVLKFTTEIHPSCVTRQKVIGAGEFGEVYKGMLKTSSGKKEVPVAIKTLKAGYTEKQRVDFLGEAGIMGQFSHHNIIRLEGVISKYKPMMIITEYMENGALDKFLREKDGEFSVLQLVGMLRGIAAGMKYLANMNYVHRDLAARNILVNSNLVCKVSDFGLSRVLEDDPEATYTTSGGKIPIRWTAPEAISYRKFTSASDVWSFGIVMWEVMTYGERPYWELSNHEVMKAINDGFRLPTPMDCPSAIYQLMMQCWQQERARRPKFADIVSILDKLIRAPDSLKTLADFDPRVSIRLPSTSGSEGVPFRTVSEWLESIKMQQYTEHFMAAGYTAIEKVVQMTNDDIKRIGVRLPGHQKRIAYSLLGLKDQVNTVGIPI

Regarding “ephrin A1-Fc (from UniProt P20827 19-182) (Fc fusion)”, in assay [1], the rounding of PC3 cells after a brief exposure to ephrin A1-Fc stood at 90%. In assay [2], this substance displayed an inhibition of U251 cell migration in Boyden chambers by ligand of 50%.
